In the supplement of paper PMC9112550, “Optimization of the antimicrobial peptide Bac7 by deep mutational scanning” (BMC Biology, 2022):

Each sequence was assayed on Escherichia coli TOP10 (assay: shrunken log2 fold change of peptide-encoding DNA abundance (4.5 h post-induction vs induction); higher = less antimicrobial activity (less host growth inhibition)). Conditions: time post-induction: 4.5 h; library: site-saturation at positions 5, 18, 19, 20.
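Further: peptides expressed intracellularly from a pBAD plasmid library in pooled LB shake-flask culture, induced with 0.3% L-arabinose, DNA abundance read by NGS, three biological replicates, DESeq2 with apeglm shrinkage.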

Row | Sequence | shrunken log2 fold change
1 | RRIRHRPPRLPRPRPRPDKTPRP | 0.0185
2 | RRIRHRPPRLPRPRPRPDKWPRP | -0.395
3 | RRIRHRPPRLPRPRPRPDLLPRP | -0.0324
4 | RRIRHRPPRLPRPRPRPDLSPRP | -0.000678
5 | RRIRHRPPRLPRPRPRPDLTPRP | -0.000777
6 | RRIRHRPPRLPRPRPRPDMQPRP | -0.106
7 | RRIRHRPPRLPRPRPRPDNHPRP | -0.323
8 | RRIRHRPPRLPRPRPRPDNNPRP | -0.453
9 | RRIRHRPPRLPRPRPRPDRGPRP | -0.144
10 | RRIRHRPPRLPRPRPRPDSYPRP | -0.0167
11 | RRIRHRPPRLPRPRPRPDVTPRP | -0.0437
12 | RRIRHRPPRLPRPRPRPDWRPRP | 0.147
13 | RRIRHRPPRLPRPRPRPEAQPRP | -0.00183
14 | RRIRHRPPRLPRPRPRPECKPRP | -0.0985
15 | RRIRHRPPRLPRPRPRPEDKPRP | -0.0488
16 | RRIRHRPPRLPRPRPRPEFDPRP | 0.12
17 | RRIRHRPPRLPRPRPRPEFWPRP | 0.42
18 | RRIRHRPPRLPRPRPRPEGMPRP | -0.0777
19 | RRIRHRPPRLPRPRPRPEHFPRP | -0.00153
20 | RRIRHRPPRLPRPRPRPEHGPRP | -0.00141
21 | RRIRHRPPRLPRPRPRPEISPRP | 0.0458
22 | RRIRHRPPRLPRPRPRPEIVPRP | -0.0182
23 | RRIRHRPPRLPRPRPRPEKWPRP | -0.0863
24 | RRIRHRPPRLPRPRPRPEMIPRP | 0.0986
25 | RRIRHRPPRLPRPRPRPENDPRP | 0.00527

Row | Sequence | shrunken log2 fold change
26 | RRIRHRPPRLPRPRPRPENHPRP | -0.235
27 | RRIRHRPPRLPRPRPRPERDPRP | 0.155
28 | RRIRHRPPRLPRPRPRPESFPRP | -0.0018
29 | RRIRHRPPRLPRPRPRPESTPRP | 0.0536
30 | RRIRHRPPRLPRPRPRPESYPRP | -0.012
31 | RRIRHRPPRLPRPRPRPEVMPRP | -0.0878
32 | RRIRHRPPRLPRPRPRPEWKPRP | -0.00613
33 | RRIRHRPPRLPRPRPRPFCMPRP | -1.09
34 | RRIRHRPPRLPRPRPRPFCQPRP | -0.243
35 | RRIRHRPPRLPRPRPRPFFWPRP | 0.093
36 | RRIRHRPPRLPRPRPRPFGDPRP | -0.257
37 | RRIRHRPPRLPRPRPRPFGNPRP | -0.119
38 | RRIRHRPPRLPRPRPRPFHAPRP | -0.0061
39 | RRIRHRPPRLPRPRPRPFHKPRP | -0.0218
40 | RRIRHRPPRLPRPRPRPFISPRP | -0.387
41 | RRIRHRPPRLPRPRPRPFLEPRP | -0.0353
42 | RRIRHRPPRLPRPRPRPFMGPRP | -0.103
43 | RRIRHRPPRLPRPRPRPFMNPRP | -0.0862
44 | RRIRHRPPRLPRPRPRPFNMPRP | -0.0933
45 | RRIRHRPPRLPRPRPRPFPQPRP | 3.88
46 | RRIRHRPPRLPRPRPRPFQEPRP | -0.00966
47 | RRIRHRPPRLPRPRPRPFQSPRP | -0.00192
48 | RRIRHRPPRLPRPRPRPFRTPRP | -0.0018
49 | RRIRHRPPRLPRPRPRPFVVPRP | -0.16
50 | RRIRHRPPRLPRPRPRPFWYPRP | -0.167

Row | Sequence | shrunken log2 fold change
51 | RRIRHRPPRLPRPRPRPGAEPRP | 0.13
52 | RRIRHRPPRLPRPRPRPGAMPRP | 0.392
53 | RRIRHRPPRLPRPRPRPGAQPRP | 0.187
54 | RRIRHRPPRLPRPRPRPGARPRP | 0.335
55 | RRIRHRPPRLPRPRPRPGCSPRP | -0.08
56 | RRIRHRPPRLPRPRPRPGCVPRP | 0.000164
57 | RRIRHRPPRLPRPRPRPGFNPRP | -0.0117
58 | RRIRHRPPRLPRPRPRPGGSPRP | -0.0606
59 | RRIRHRPPRLPRPRPRPGHRPRP | -0.0928
60 | RRIRHRPPRLPRPRPRPGLSPRP | -0.0763
61 | RRIRHRPPRLPRPRPRPGMDPRP | -0.0518
62 | RRIRHRPPRLPRPRPRPGMWPRP | -0.0849
63 | RRIRHRPPRLPRPRPRPGNVPRP | -0.36
64 | RRIRHRPPRLPRPRPRPGPFPRP | -0.225
65 | RRIRHRPPRLPRPRPRPGRSPRP | 3.99
66 | RRIRHRPPRLPRPRPRPGSIPRP | -0.209
67 | RRIRHRPPRLPRPRPRPGVKPRP | -0.0148
68 | RRIRHRPPRLPRPRPRPGWFPRP | 0.0663
69 | RRIRHRPPRLPRPRPRPGWHPRP | 0.208
70 | RRIRHRPPRLPRPRPRPGWIPRP | -0.051
71 | RRIRHRPPRLPRPRPRPGWNPRP | 0.0316
72 | RRIRHRPPRLPRPRPRPGYHPRP | -0.126
73 | RRIRHRPPRLPRPRPRPGYTPRP | -0.302
74 | RRIRHRPPRLPRPRPRPGYYPRP | -0.318
75 | RRIRHRPPRLPRPRPRPHDFPRP | -0.0633
